# Experimental data published in the DeepSol protein solubility set.
# Test: soluble on expression in E. coli; label from the status in PepcDB or PDB records
row,Sequence,soluble on expression in E. coli
1,MNRYPGIPRNEWSAGWKRTACIVKAEDGSWGFGFTLHSGVTERIINDHLSKILIGRNCMSTEMLWDVMQQSTISYGTSGLSSFAISAVDNAIWDLKGKILDRPVYELIGGPQKDKIFCYASNTSFEYGTKNSIEWFLELGFKAVKLFLREGPESNLEGINRAEQLVASTREQVGKDVEIAVDAWMSLNNEYAVRLAEVLKPYRIKWLEDYLNPENLDGYQNLRNRIPWQTLATGEHWYSLYPFALAASKGIVDIFQPDLNWVGGITAGIKICHLAEAHGLSVIPHASTNYPYGQHLAFSMPSVPWAERSEGVSPPGVPLEEMVLLPGTPVIKDGYIIPSDAPGFGLEITEDWLRDRAV,soluble
2,MSAFPVHAAFEKDFLVQLVVVDLNDSMDQVAEKVAYHCVNRRVAPREGVMRVRKHRSTELFPRDMTIAESGLNPTEVIDVVFEE,soluble
3,MGSDKIHHHHHHMGFDVEALKAALEAHGRVIRVVVAEVKGSAPREVGAAMLVWDGGQSGTIGGGTLEFEAADAARRQDAPYRLSTHALGPDLGQCCGGAVTLLSEVYTEVNIAQLTGQVISRAVAPGPEPLAVSRILNHARAQGLAPAPQLIAGWMIEPVACATRPLWIWGAGHVGRALVEVLAPLPDYAITWVDVMRSKYPQEIPASVTALPAQEPGRLVPHAPTEAYHLILTYSHQLDLALCHRLLEHGFDFAGLIGSKTKWARFRARLAALGHRPEQIARLTCPIGMPELGKHPHAIAIGVAAELMALSQRLDLKKEHSA,not soluble
4,QDNALKQVAAMAKIADRYVSAWGSEAQVEDDTIRRLLASLGYDTSSDDALLQSAEKKHKKDVVDPVLVVHQGSAIEVPLYLGVSARESEFDWRLQTEQGEVLEGYLQSQIVRDERAEGGPLVFALPNDLPLGYHTLLIARKRRKAPYEMTLIVTPQACYKQPALAQ,not soluble
5,MKIQDYTKEMVDEKSFIDMAYTLLNDKQTTMNLYDIIDEFKSLGGYEYEDIENRIVQFYTDLNTDGRFLNVGENLWGLRDWYSVDDIEEKIAPTIQKFDILDDEDEEDQNLKLLGDDDADEDDDIPAQTDDQETLDESDNDEDDVEMNEADIVIDEDEDEDIAEGEEEAFEDAEDFND,not soluble
6,MKHSGYLWAIGKNVWKRWKKRFFVLVQVSQYTFAMCSYREKKAEPQELLQLDGYTVDYTDPQPGLEGGRAFFNAVKEGDTVIFASDDEQDRILWVQAMYRATGQSHKPVPPTQ,soluble
7,MSLKTGRTNTIVVLVPNLINPFFMRIIGGIEQAAQERGFTVLLCDTQGESKRESDYASMVLTNRADGLIQLDHSFPFTEDDAKLAETIPMVSVCERIHSDKKYPVVALDNYAASRALAHHLVSYGHTKFAVIVGQVVSQIHKDRLYGLRSVLAEEDIEFDEDMIVGQSYSIENGIEGMRQLLEKPNRPSAVICFNDDIAIGAMHEIHRQGLRVPEDISVVGFDNVKVAAFMNPPLTTIDQPAYEMGRRGMEILSDVINGVPLTRSSEMLPFQLLERESSGEGHHHHHH,not soluble
8,MSYPATRAEQVVDTLHGVQVADPYRWLEDEKAPEVQTWMTAQNAHAREALAKFPGREALAARFKELFYTDSVSTPSRRNGRFFYVRTHKDKEKAILYWRQGESGQEKVLLDPNGWSKDGTVSLGTWAVSWDGKKVAFAQKPNAADEAVLHVIDVDSGEWSKVDVIEGGKYATPKWTPDSKGFYYEWLPTDPSIKVDERPGYTTIRYHTLGTEPSKDTVVHERTGDPTTFLQSDLSRDGKYLFVYILRGWSENDVYWKRPGEKDFRLLVKGVGAKYEVHAWKDRFYVLTDEGAPRQRVFEVDPAKPARASWKEIVPEDSSASLLSVSIVGGHLSLEYLKDATSEVRVATLKGKPVRTVQLPGVGAASNLMGLEDLDDAYYVFTSFTTPRQIYKTSVSTGKSELWAKVDVPMNPEQYQVEQVFYASKDGTKVPMFVVHRKDLKRDGNAPTLLYGYGGFNVNMEANFRSSILPWLDAGGVYAVANLRGGGEYGKAWHDAGRLDKKQNVFDDFHAAAEYLVQQKYTQPKRLAIYGGSNGGLLVGAAMTQRPELYGAVVCAVPLLDMVRYHLFGSGRTWIPEYGTAEKPEDFKTLHAYSPYHHVRPDVRYPALLMMAADHDDRVDPMHARKFVAAVQNSPGNPATALLRIEANAGHGGADQVAKAIESSVDLYSFLFQVLDVQGAQGGVAAQGRHHHHHH,soluble
9,MGSDKIHHHHHHMNTHNILIIGQGDIGLPVTNKLAQNGVNVTGLARRKRQNYALSDHAKFMQADALTLSPEQLQDFTHIAIIVTPDEYSTSGYHNSYLAINQHLALLADKLSNLQRVVFISSTGVYGQDNGEWIDEDTVPMLPEREASQVILQAEQALQQVFHDRAIIIRPSGIYGRARLMRVRKAKEPQKQPIAAGAWTNRIMDSDLVNIIAKVLTIKAPKPIYIATDYLPVTSFALTTWLSEQLDEALPVLDDKNSVMTGKRLHSNIPLSWLMYPDWQIGYQDILRHQD,not soluble
10,MTELARLKFYATQPHSCSYLPDEQATTLFLDPSQPMDVHVYADLSEMGFRRSGDHLYRPHCQNCNACVPARIPATQFLPSRQQKRIIKRNSDLTVHAAKPCFSEEYFDLYQRYIEQRHADGDMFPPSRDQFSTFLVRDLPFSRFYEFRLDGRLLAVAVTDLLPNGLSAVYTFYEPDEERRSLGRFAILWQIGETLRLGLDAVYLGYWIKNCKKMNYKTQYRPIELLVNQRWVILNLEHHHHHH,not soluble
11,MGSDKIHHHHHHMQETKTTVRASTLSNGRSLAAYHEDFDRKWASAWGRTLTYAQMHANRVVQSARIVLSHPDIWGKVASGFVNAARGRKRLLRSLEIAVTYRCNARCEQCSCRRDHDPVREKTELLTLPELQRVIDEAVDMGAFQFCINGGEPMLEEEKVFALLDYIKTRHKGYVHLCTNGTLLDDDKVARLAEHHLDSVEMGFDSAFEDVHDANRVRGGYRKVFHNIEAFRKRGVGVVLNTILTNQKVRSDDMLFTMDLAKKHGCMLQVTPCCLTGALRGRMDMMLTEKARFYFYWFLAQSTNNRSDLYSSLTRIKCPAGREKLGLQPYGDVVSCPLIQIRYGNVREKGLAAIQQDILADPYYGLDGSHGCLPAMSETFIRERLSGDR,not soluble
12,AIARTDSSKMTDVESGVANFASSARAGRRNALPDIQSSAATDGTSDLPLKLEALSVKEDAKEKDEKTTQDQLEKPQNEEK,soluble
13,MAQVAIFKEIFDQVRKDLNCELFYSELKRHNVSHYIYYLATDNIHIVLENDNTVLIKGLKKVVNVKFSRNTHLIETSYDRLKSREITFQQYRENLAKAGVFRWITNIHEHKRYYYTFDNSLLFTESIQNTTQIFPR,not soluble
14,MSLLSYRHAFHAGNHADMLKHFTLFLVLQYFNRKDKPYWYIDTHGGAGVYNLEGSEAQKVGEYRQGIALLRQAQNLPAELSDFAAHIQKILPSPELYCGSPWLAQSLTRVGDKLRLFELHPTDFVHLQNNMGEAGLGKRGQVLREDGYKGLISLLPPPPRRAAVLIDPPYEEKQDYWRVTETLKSALKRFESGCYLIWYPCLSREESRKLPEELKKLVPDNYLHAELHVHAPKADGFGMHGSGMFVINPPYLLAEQLAANLPALTRLLAQDEGARYLLDSKEGHHHHHH,soluble
15,MRQWTAIHLAKLARKASRAVGKRGTDLPGQIARKVDTDVLRKLAEQVDDIVFISGTNGKTTTSNLIGHTLKANNIQIIHNNEGANMAAGITSAFIMQSTPKTKIAVIEIDEGSIPRVLKEVTPSMMVFTNFFRDQMDRFGEIDIMVNNIAETISNKGIKLLLNADDPFVSRLKIASDTIVYYGMKAHAHEFEQSTMNESRYCPNCGRLLQYDYIHYNQIGHYHCQCGFKREQAKYEISSFDVAPFLYLNINDEKYDMKIAGDFNAYNALAAYTVLRELGLNEQTIKNGFETYTSDNGRMQYFKKERKEAMINLAKNPAGMNASLSVGEQLEGEKVYVISLNDNAADGRDTSWIYDADFEKLSKQQIEAIIVTGTRAEELQLRLKLAEVEVPIIVERDIYKATAKTMDYKGFTVAIPNYTSLAPMLEQLNRSFEGGQS,not soluble
16,MEIGIIGTGNIGGTLARKLIAAGHQVRVANSKGIHGVQSFADEIGATAVDVYGAVKGADAIILSIPLPALASLPNGFFDDLPETVPLIDTSNYYPGLRDPLIPEIDDGMTESVWVSQQLSHPVIKAFNNILAWSLAELGTPKGSASRLAIAVAGDNATLKQIVMNLVDDTGFDAIDAGSLEESWRQQPSTPAYCCDYDAETMKKGLTAAVRGEAASKRDRLPELFGKLGANPTHEDIVAMNRSLNPLEHHHHHH,soluble
17,SLYIEMVDETGQVSKEMLQQTQEILEFAAQKLGKEDKEMAVTFVTNERSHELNLEYRDTDRPTDVISLEYKPELEIAFDEEDLLENPELAEMMSEFDAYIGELFISIDKAHEQAEEYGHSFEREMGFLAVHGFLHINGYDHYTPEEEAEMFGLQEEILTAYGLTRQ,soluble
18,MSLSRIIVVTSGKGGVGKTTSSAAIASGLALRGKKTAVIDFDIGLRNLDLIMGCERRVVYDFVNVINGEATLNQALIKDKRNENLFILPASQTRDKDALTKDGVQRVLNDLKEMGFDFIICDSPAGIEQGALMALYYADEAIVTTNPEVSSVRDSDRILGILDSKSMRAEQGQAPIKQHLLLTRYNPARVTQGEMLSVQDVEEILHVPLLGVIPESQAVLNASNKGVPVIFDDQSDAGQAYQDTVARLLGEQVEFRFLTEAKKGIFKRLFGGEGHHHHHH,soluble
19,LKPDPWADIETRFPVGSRHHARVRNFTNFGVFVEIEEGVDGLIHISDLSWTKKIKHPSEFTEVGADIEVQVIEIDKENRRLSLGHKQLEENPWDVFETVFTVGSIHEGTVIEVMDKGAVVSLPYGVEGFATPKHMVKEDGSQAVLEEKLPFKVIEFNKDAKRIIVSHSRVFEDEQKMAQREANAERKAEAKAAQKEAAAEAANPAQAVEKATLGDLGELAALKEKLSEN,not soluble
20,MSPQVSIVIPNHDYGRYLDACLDSLAAQTLPVQRMEVIVVDDASGDDSLERAARWQACHPWKAFTVVPLSRVGRPGPVRNAGLRRAQAALMLCLDPDDTLAPEALVRMVEALDNAPHAHVASSDYFEHRGEHIRRVNIPDDDSNVLPTQNPCHSASLFRREVWEATGGYTAATAYEDWDFWVRAASCGMRRVRVPYPLVHYRLRDDGFWVGASADDAKAKAAIVRRTPAFFAPEVRGWAVAILRGETWMPAFPRGVIPTAEALRAFRDDCMARLGPQADSLFTALPGWPRKTGESSRSGETGQSGLEHHHHHH,not soluble
21,MGSDKIHHHHHHMNIKIAKNAGFCFGVKRAMKMAWDEVEKNDSGIYALGPLIHNKQAVAKYEEKGLKTVNEIDTIPNHENMIIRSHGVPENIYKEAKDKKLKIVDTTCPFVKKIHTVVSEYHNKGYEIIVIGDMKHPEVIGINGWCENSAIIIKTLEQMENMEFDNSKRYCLVAQTTINPELYISIVNKLSDKLEEIVFNDTICSATKTRQESAKELAKEVDCMIVIGGKHSSNTQKLVKVCEDLVPTFAIETKDELDVNTLKKYKNLGITAGASTPNWIIEEVVTFLENL,not soluble
22,MAHHHHHHMAKHSTFKNLVKLHGDMKKEELLVLFFHSCILDNNFIYKLNDEQKYEKSESHEKIKISNGYIKHMTDVGSGKFFLSRILIDPEWRSNSSSYNFLYQSVDTNDTYNLNLVKIENSLVVQIINTAQPSVVHSVTIDVGEYVNECTAEEGKTDNIEDRVMMEKLEGVFQTHILSHMKKGSSNNILGDNSSSKGKGPKGLIIESNANEHFRNVFQTNPDPYLLPNFNANHFDDKNPNIGRSLIPDLRNNVPILKPDGLLVGPDNKFFNPKNLRYDPIGPFGNEPNADNKPFEFQDNFPF,not soluble
